T1: naturally occurring sFRP-1 present in the cultures
T1 sequence (Q8C4U3 32-314, species assumed, looked up): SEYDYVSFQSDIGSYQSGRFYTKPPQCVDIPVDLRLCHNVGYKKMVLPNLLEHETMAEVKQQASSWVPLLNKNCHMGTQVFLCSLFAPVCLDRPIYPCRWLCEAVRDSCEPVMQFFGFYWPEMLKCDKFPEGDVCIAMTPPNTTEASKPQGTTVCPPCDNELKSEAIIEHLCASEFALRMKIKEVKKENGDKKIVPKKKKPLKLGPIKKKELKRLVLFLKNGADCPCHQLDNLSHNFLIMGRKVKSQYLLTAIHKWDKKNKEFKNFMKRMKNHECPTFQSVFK

B1: recombinant human secreted Frizzled-related protein-1 (sFRP-1) (other)
chain: T1 sequence (Q8C4U3 32-314, species assumed, looked up) with S14P, V32A, M76A, T143A, E211D, R214K, F218Y, N236H, R269K
notes: also called full-length sFRP-1
B2: B-B9 M13 phage (peptide linked to gene III coat protein) (other)
chain: LVDGRWLYNPHH
modifications: not fully specified
notes: the text gives 27; also called B-B9 phage; not shown: M13 phage gene III coat protein
B3: A-E4-expressing M13 phage (peptide linked to gene III coat protein) (other)
chain: VVDGRWVQGLED
modifications: not fully specified
notes: Printed as VVDGRWVQGLED; also called A-E4 phage; not shown: M13 phage gene III coat protein
B4: A-C2 synthetic 12-mer peptide (peptide)
peptide: QGTLVDGRWLQL
notes: also called AC2 peptide
B5: ΔCRD-H/M (other)
single chain: EYDYVSFQSDIGPYQSGRFYTKPPQIAMTPPNATEASKPQGTTVCPPCDNELKSEAIIEHLCASEFALRMKIKEVKKENGDKKIVPKKKKPLKLGPIKKKDLKKLVLYLKNGADCPCHQLDNLSHHFLIMGRKVKSQYLLTAIHKWDKKNKEFKNFMKKMKNHECPTFQSVFKQAYVEQKLISEEDLNSAVDHHHHHH
notes: the sheet prints H/M, the text M/H; also called human sFRP-ΔCRD-M/H; sFRP-1 derivative lacking the CRD
B6: A-C2-expressing M13 phage (peptide linked to gene III coat protein) (other)
chain: QGTLVDGRWLQL
modifications: not fully specified
notes: also called A-C2 phage; not shown: M13 phage gene III coat protein
B7: recombinant soluble RANKL (PeproTech) (ligand)
chain: IRAEKAMVDGSWLDLAKRSKLEAQPFAHLTINATDIPSGSHKVSLSSWYHDRGWAKISNMTFSNGKLIVNQDGFYYLYANICFRHHETSGDLATEYLQLMVYVTKTSIKIPSSHTLMKGGSTKYWSGNSEFHFYSINVGGFFKLRSGEEISIEVSNPSLLDPDQDATYFGAFKVRDID
notes: Reagent of the ELISA assays; also called sRANKL

Positions count from the first letter of the chain named. Where no end group is shown, it is not given here.

The target in test [1] is T2, alkaline phosphatase itself (UniProt P00634 22-471 = phosphatase, limits assumed).
T2 construct: Control for the peptide/AP fusions; also called AP
T2 sequence (P00634 22-471 limits assumed): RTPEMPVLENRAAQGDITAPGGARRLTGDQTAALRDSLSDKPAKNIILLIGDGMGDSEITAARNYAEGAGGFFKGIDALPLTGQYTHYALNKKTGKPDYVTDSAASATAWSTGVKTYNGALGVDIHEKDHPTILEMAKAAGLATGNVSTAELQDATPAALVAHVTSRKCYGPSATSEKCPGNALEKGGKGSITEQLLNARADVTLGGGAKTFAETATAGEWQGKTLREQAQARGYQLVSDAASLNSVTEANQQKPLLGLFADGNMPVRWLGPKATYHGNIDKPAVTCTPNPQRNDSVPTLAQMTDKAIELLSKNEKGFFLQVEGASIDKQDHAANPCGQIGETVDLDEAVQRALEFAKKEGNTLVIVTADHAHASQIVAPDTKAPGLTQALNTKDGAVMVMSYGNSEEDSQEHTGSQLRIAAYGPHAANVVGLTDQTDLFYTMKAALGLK
As to the kind of experiment: ELISA, sFRP-1-coated wells against BSA wells. On the technique in general: In an ELISA, binding on a coated surface is turned into a signal by an enzyme label.

For test [2], the target named is B1. As to the kind of experiment: phage ELISA, sFRP-1-coated against BSA-coated wells. Here is the method: Amplified phage recovered from bacterial broth after this first enrichment step were subjected to two more rounds of panning in wells coated with sFRP-1 as described in the previous paragraph, except that the phage were incubated for only 2 hours and 1 hour in the second and third panning steps, respectively. After the third round of panning, phage obtained from the sFRP-1-coated well were titered and seeded on a lawn of bacteria to permit isolation of phage from 200 separate colonies. Bacteria from each of these colonies were grown in broth, pelleted by centrifugation and phage retrieved in the supernatant. Each of these phage supernatants was tested for binding to sFRP-1-coated ELISA wells versus wells only coated with the BSA blocking solution. Phage were detected in this assay with primary antibody directed against phage coat protein (Pharmacia Biotech, Uppsala, Sweden, #27-9411-01) and standard detection reagents.
To identify peptide sequences that bind sFRP-1, ˜25×10⁹ phages from a library containing a diverse repertoire of twelve-amino acid residue segments linked to the gene III coat protein of M13 phage were screened. After three successive rounds of panning for phage that bound to ELISA wells preincubated with sFRP-1, the phage preparation selected for its ability to bind sFRP-1 was titered and then plated on a lawn of bacteria. Phage from 200 separate colonies of lysed bacteria were picked, grown in bacterial broth overnight, recovered in supernatant, and tested for their ability to bind preferentially to sFRP-1 versus BSA in an ELISA. Phage that bound at least five times more avidly to sFRP-1 than BSA-coated wells were subjected to nucleotide sequence analysis to determine the identity of the peptide sequence responsible for this binding specificity.

The target of test [3] is B1. The test is described as follows: isothermal titration calorimetry, A-C2 (200 uM) injected into sFRP-1 (10 uM) in PBS. As to the method: (§1) ITC experiments were performed with a VP-ITC MicroCalorimeter MicroCal, LLC, Northhampton, Mass.) according to the manufacturer's User Manual. In brief, 6 μl aliquots of A-C2 (200 μM, dissolved in PBS) were injected at regular intervals into a chamber containing sFRP-1 (10 μM, also in PBS). Increases in temperature of the chamber resulting from the binding of A-C2 and sFRP-1 were determined as a measure of the heat produced by the binding reaction. Several parameters, included enthalpy and dissociation constant, were calculated from these measurements. This technique is commonly used to quantify the thermodynamic properties of binding interactions between proteins and peptides.
(§2) Binding was evident, as heat was generated when aliquots of AC2 solution were added to a chamber containing sFRP-1 dissolved in PBS. By contrast, no heat was produced when AC2 was added to a chamber containing only PBS.
In general terms: Isothermal titration calorimetry measures the heat released or taken up as one component is titrated into another.

Test [4] deals with T1, naturally occurring sFRP-1 present in …. The test is described as follows: cell-based or functional assay.
Test [5] deals with B1. The test is described as follows: Isothermal titration calorimetry: A-C2 peptide (200 µM in PBS) injected into sFRP-1 (10 µM in PBS). Here is the method: as §1, §2
The target in test [6] is B1. The test is described as follows: Isothermal titration calorimetry: A-C2 peptide (200 µM in PBS) injected into sFRP-1 (10 µM in PBS); no unit printed in the box. As to the method:
as §1, §2

The target of test [7] is B7. As to the kind of experiment: ELISA: wells coated with sFRP-1 or derivative, incubated with soluble RANKL, bound RANKL detected; triplicates. Here is the method:
FIG. 12 is a graph of the binding avidity of several sFRP-1 deletion mutants for RANKL in ELISA experiments. Wells were coated either with full-length sFRP-1 or with any one of a set of epitope-tagged sFRP-1 deletion mutants (Uren et al., J Biol Chem 275:4374-4382, 2000) or BSA control, and then sequentially incubated with soluble RANKL and reagents to detect RANKL bound to the wells. The results shown are the mean +/−S.D. of triplicate measurements from a representative experiment.
ELISA experiments were generally performed as previously described (Uren et al., J. Biol. Chem. 275:4374-4382, 2000), with modifications depending on the sFRP binding partner to be tested. Typically, wells were coated with 0.5 or 1 μg of sFRP-1, blocked with BSA (0.2%, 1%, or 4%) and then incubated with putative binding partner overnight at room temperature. When investigating the binding of peptide/AP chimeras, after aspiration of bacterial broths, wells were washed and incubated with p-nitrophenolphosphate (pNPP). Color development was determined at 405 nm with an ELISA reader. […] Following overnight incubation at room temperature, RANKL solutions were aspirated and bound RANKL was detected by sequential incubations with primary antibody to RANKL, secondary antibody coupled with AP and pNPP. […]

In test [8] the target is B1. The test is described as follows: ELISA: serial dilutions of soluble RANKL on sFRP-1-coated, BSA-blocked wells; detection with RANKL antibody, AP-coupled secondary antibody and pNPP. As to the method: (§3) ELISA experiments were generally performed as previously described (Uren et al., J. Biol. Chem. 275:4374-4382, 2000), with modifications depending on the sFRP binding partner to be tested. Typically, wells were coated with 0.5 or 1 μg of sFRP-1, blocked with BSA (0.2%, 1%, or 4%) and then incubated with putative binding partner overnight at room temperature. When investigating the binding of peptide/AP chimeras, after aspiration of bacterial broths, wells were washed and incubated with p-nitrophenolphosphate (pNPP). Color development was determined at 405 nm with an ELISA reader. For competition experiments, soluble peptides were preincubated with peptide/AP chimeras in bacterial broth for 30 min at room temperature prior to transfer into ELISA wells coated with sFRP-1 or BSA. When testing RANKL binding to sFRP-1, serial dilutions of soluble RANKL were assayed in replicate. Following overnight incubation at room temperature, RANKL solutions were aspirated and bound RANKL was detected by sequential incubations with primary antibody to RANKL, secondary antibody coupled with AP and pNPP. Similar experimental designs were employed when other TNFα family members were examined for binding to sFRPs, and when sFRP-1 derivatives or sFRP-2 were the binding targets for RANKL.
(§4) The possibility that sFRP-1 (SEQ ID NO: 3) and RANKL interact directly with each other was tested using an ELISA assay. […]

The target in test [9] is T3, bovine serum albumin (bovine, UniProt P02769 25-607).
T3 construct: Control coat; also called BSA
T3 sequence (P02769 25-607 limits assumed): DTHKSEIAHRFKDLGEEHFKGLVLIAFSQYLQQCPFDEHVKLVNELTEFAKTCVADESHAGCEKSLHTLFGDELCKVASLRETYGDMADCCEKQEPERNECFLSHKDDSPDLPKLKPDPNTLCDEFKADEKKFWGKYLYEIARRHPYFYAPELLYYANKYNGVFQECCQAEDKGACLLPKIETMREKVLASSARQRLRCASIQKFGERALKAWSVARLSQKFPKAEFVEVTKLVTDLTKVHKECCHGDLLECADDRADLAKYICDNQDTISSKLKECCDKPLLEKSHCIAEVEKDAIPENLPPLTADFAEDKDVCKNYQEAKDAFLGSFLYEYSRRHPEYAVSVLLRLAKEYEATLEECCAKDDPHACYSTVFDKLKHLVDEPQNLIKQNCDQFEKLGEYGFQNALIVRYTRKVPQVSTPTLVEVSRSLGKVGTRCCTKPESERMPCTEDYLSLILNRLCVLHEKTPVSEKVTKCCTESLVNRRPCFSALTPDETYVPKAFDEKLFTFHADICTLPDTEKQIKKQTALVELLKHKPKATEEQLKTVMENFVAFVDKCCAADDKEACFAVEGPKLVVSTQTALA
The test is described as follows: ELISA: serial dilutions of soluble RANKL on wells treated with BSA only; detection with RANKL antibody, AP-coupled secondary antibody and pNPP. As to the method:
as §3, §4

Data on seven molecules can be found in patent US20040077828A1 (US Dept. of Health and Human Services, published 2004).

What is called Kd is a measure of binding affinity in units of concentration. As usually defined, the EC50 (read off the curve) is the midpoint of the concentration-response curve.

B1: in [1], the binding result is on record as “no binding”.

On to B2, for which, in test [2], the “Specificity (sFRP-1/BSA)” value was 5 ratio of binding to sFRP-1 wells over BSA wells.

Regarding B3, the “Specificity (sFRP-1/BSA)” value in test [2] was 10 ratio of binding to sFRP-1 wells over BSA wells. Regarding B4, the dissociation constant (Kd) in test [3] is 3.9 µM. In [4], the “TRAP+ multinucleated cells, osteoblast and adult spleen cell co-cultures” value was determined as 10 fold increase. In test [5], the N turned out to be 1.14. Moreover, in test [6], the ΔH is -3620 and the ΔS was determined as 12.6. Turning to B5, the binding result in [7] was “no binding”.

For B6, in [2], the “Specificity (sFRP-1/BSA)” value is 10 ratio of binding to sFRP-1 wells over BSA wells. For the molecule B7, in [8], the “EC50 (read off the curve)” value is about 1 µg/mL. Also, the binding result in [9] is listed as “no binding (tested: 10 ug/ml)”.
